Measured values from patent US20110009316A1.

Legend:
MutGln = MutGln (UniProt P15692)
[1] = biological target: commercially available recombinant VEGF165 protein (R&D Systems) (UniProt P15692)
[2] = biological target: VEGF165 wild type synthesized in COS-1 cells (UniProt P15692)
MutAla = MutAla (UniProt P15692)
[3] = biological target: commercially available recombinant VEGF165 protein (R&D Systems) (UniProt P15692); test: cell-based or functional assay
[4] = biological target: VEGF165 wild type synthesized in COS-1 cells (UniProt P15692); test: cell-based or functional assay

Sequence of MutLys-Pro (chain, as listed by the source): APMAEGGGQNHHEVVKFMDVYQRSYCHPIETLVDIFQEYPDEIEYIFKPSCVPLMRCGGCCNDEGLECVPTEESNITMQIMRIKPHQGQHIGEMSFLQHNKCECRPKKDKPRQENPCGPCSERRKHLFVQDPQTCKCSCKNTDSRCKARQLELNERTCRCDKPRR
Sequence of MutPro (chain, as listed by the source): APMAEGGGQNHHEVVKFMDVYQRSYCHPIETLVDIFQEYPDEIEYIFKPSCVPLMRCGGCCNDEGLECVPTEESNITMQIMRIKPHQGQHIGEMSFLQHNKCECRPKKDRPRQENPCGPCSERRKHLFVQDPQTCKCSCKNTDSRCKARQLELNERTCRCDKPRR

Substance	degradation on incubation with plasmin [0.01 U/ml], Western blotting and immunodetection (MutGln)	degradation on incubation with plasmin [0.01 U/ml], Western blotting and immunodetection (MutPro)	degradation on incubation with plasmin [0.01 U/ml], Western blotting and immunodetection [1]	degradation on incubation with plasmin [0.01 U/ml], Western blotting and immunodetection [2]	degradation on incubation with plasmin [0.01 U/ml], Western blotting and immunodetection (MutAla)	degradation on incubation with plasmin [0.01 U/ml], Western blotting and immunodetection (MutLys-Pro)	loss of biological activity (BrdU incorporation into HUVE cells) 20 minutes after incubation with plasmin [3] [%]	remaining biological activity (BrdU incorporation into HUVE cells) after 240 minutes with plasmin (% of the initial activity) [3]	loss of biological activity (BrdU incorporation into HUVE cells) 20 minutes after incubation with plasmin [4] [%]	remaining biological activity (BrdU incorporation into HUVE cells) after 240 minutes with plasmin (% of the initial activity) [4]
plasmin	also show a comparable stability of the signal bands at 45 and 42 kDA after incubation with plasmid for 240 minutes	also show a comparable stability of the signal bands at 45 and 42 kDA after incubation with plasmid for 240 minutes	the degradation pattern is similar to that of the commercially obtainable VEGF165	shows degradation of the growth factor after only 15 minutes	the mutated protein shows no change in the migration behaviour up to 240 minutes after incubation	also show a comparable stability of the signal bands at 45 and 42 kDA after incubation with plasmid for 240 minutes	–	–	–	–
plasmin (enzyme)	–	–	–	–	–	–	> 20	50	> 20	50
